Data on 6 molecules can be found in paper PMC10397247.

Where two headings read alike, the source gives them in different places.

The target of one assay is T1, 4H908-bH.
T1 chain: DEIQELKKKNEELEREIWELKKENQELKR
In words: two-hybrid library CCNG1.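 Also: natural log of median RNA to DNA barcode read ratio; higher means stronger binding.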

A further assay addresses T2, 4H72-bH.
T2 chain: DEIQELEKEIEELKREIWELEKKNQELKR
As to the kind of experiment: two-hybrid library CCNG1.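 Also: natural log of median RNA to DNA barcode read ratio; higher means stronger binding.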

A further assay addresses T3, 4H754-bH.
T3 chain: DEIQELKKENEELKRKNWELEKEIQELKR
As to the kind of experiment: two-hybrid library CCNG1.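 Also: natural log of median RNA to DNA barcode read ratio; higher means stronger binding.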

The target of a further assay is T4, 4H797-bH.
T4 chain: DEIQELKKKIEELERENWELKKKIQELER
In words: two-hybrid library CCNG1.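 Also: natural log of median RNA to DNA barcode read ratio; higher means stronger binding.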

For a further assay, the target named is T5, 4H918-bH.
T5 chain: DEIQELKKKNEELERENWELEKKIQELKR
In words: two-hybrid library CCNG1.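 Also: natural log of median RNA to DNA barcode read ratio; higher means stronger binding.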

The target of the next assay is T6, 4H953-bH.
T6 chain: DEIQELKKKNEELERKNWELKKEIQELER
In words: two-hybrid library CCNG1.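 Also: natural log of median RNA to DNA barcode read ratio; higher means stronger binding.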

In another assay the target is T7, 4H967-bH.
T7 chain: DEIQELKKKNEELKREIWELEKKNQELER
In words: two-hybrid library CCNG1.

In another assay the target is T8, 4H883-bH.
T8 chain: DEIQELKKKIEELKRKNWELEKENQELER
In words: two-hybrid library CCNG1.

For the next assay, the target named is T9, 4H63-AA.
T9 chain: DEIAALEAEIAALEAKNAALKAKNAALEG
In words: two-hybrid library CCmax. To be noted: mean of both orientations.

A further assay concerns the target T10, 4H483-AA.
T10 chain: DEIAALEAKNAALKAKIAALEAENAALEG
In words: two-hybrid library CCmax. To be noted: mean of both orientations.

Another assay concerns the target T11, 4H464-AA.
T11 chain: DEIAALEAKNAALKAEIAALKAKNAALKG
In words: two-hybrid library CCmax.

The target of another assay is T12, 4H446-AA.
T12 chain: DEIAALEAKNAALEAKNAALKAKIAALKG
As to the kind of experiment: two-hybrid library CCmax.

The target in the next assay is T13, 4H967-bA.
T13 chain: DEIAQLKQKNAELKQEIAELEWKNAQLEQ
As to the kind of experiment: two-hybrid library CCNG1.

The next assay addresses T14, 4H918-bA.
T14 chain: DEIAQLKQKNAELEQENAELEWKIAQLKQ
As to the kind of experiment: two-hybrid library CCNG1.

In another assay the target is T15, 4H797-bA.
T15 chain: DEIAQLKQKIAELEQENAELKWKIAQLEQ
In words: two-hybrid library CCNG1.

The target in another assay is T16, 4H883-bA.
T16 chain: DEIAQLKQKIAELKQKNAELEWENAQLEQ
As to the kind of experiment: two-hybrid library CCNG1.

In a further assay the target is T17, 4H908-bA.
T17 chain: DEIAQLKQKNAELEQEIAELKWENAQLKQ
As to the kind of experiment: two-hybrid library CCNG1.

The next assay deals with T18, 4H754-bA.
T18 chain: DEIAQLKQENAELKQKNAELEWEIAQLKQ
In words: two-hybrid library CCNG1.

Another assay has as its target T19, 4H953-bA.
T19 chain: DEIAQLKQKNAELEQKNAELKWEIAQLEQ
As to the kind of experiment: two-hybrid library CCNG1.

The next assay addresses T20, 4H72-bA.
T20 chain: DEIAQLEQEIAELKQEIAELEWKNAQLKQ
In words: two-hybrid library CCNG1.

The target of the next assay is T21, 4H3920-AA.
T21 chain: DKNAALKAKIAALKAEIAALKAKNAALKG
As to the kind of experiment: two-hybrid library CCmax. To be noted: mean of both orientations.

The next assay has as its target T22, 4H656-AA.
T22 chain: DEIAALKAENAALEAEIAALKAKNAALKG
As to the kind of experiment: two-hybrid library CCmax. To be noted: mean of both orientations.

In a further assay the target is T23, 4H428-AA.
T23 chain: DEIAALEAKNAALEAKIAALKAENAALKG
As to the kind of experiment: two-hybrid library CCmax. To be noted: mean of both orientations.

The target of another assay is T24, 4H675-AA.
T24 chain: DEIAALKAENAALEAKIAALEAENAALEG
As to the kind of experiment: two-hybrid library CCmax. To be noted: mean of both orientations.

For another assay, the target named is T25, 4H478-AA.
T25 chain: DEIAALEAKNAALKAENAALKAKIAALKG
As to the kind of experiment: two-hybrid library CCmax. To be noted: mean of both orientations.

The next assay addresses T26, 4H3939-AA.
T26 chain: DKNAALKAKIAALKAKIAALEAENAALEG
In words: two-hybrid library CCmax. To be noted: mean of both orientations.

Another assay deals with T27, 4H971-AA.
T27 chain: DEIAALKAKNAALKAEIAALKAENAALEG
In words: two-hybrid library CCmax. To be noted: mean of both orientations.

A further assay has as its target T28, 4H497-AA.
T28 chain: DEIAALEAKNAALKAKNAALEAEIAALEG
As to the kind of experiment: two-hybrid library CCmax. To be noted: mean of both orientations.

The target of the next assay is T29, 4H391-AA.
T29 chain: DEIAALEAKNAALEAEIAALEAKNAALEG
In words: two-hybrid library CCmax.

On to DEIQELEKEIEELKREIWELEKKNQELKR [4H72-bH], for which the interaction score with 4H908-bH was 0.614; in the assay with 4H72-bH, 0.746; with 4H754-bH it was -0.378; in the assay with 4H797-bH, 0; with 4H918-bH, 0.163; with 4H953-bH, 0.653. The interaction score turned out to be 0.0764 with 4H967-bH and 1.69 with 4H883-bH.
With DEIQELKKKIEELKRKNWELEKENQELER [4H883-bH], the interaction score was -0.306 with 4H908-bH; -0.51 with 4H918-bH; -0.831 with 4H953-bH; -0.709 with 4H967-bH; 0.33 with 4H883-bH.
As for DEIAALEAKNAALEAKNAALKAKIAALKG [4H446-AA], the interaction score with 4H63-AA is -1.67; in the assay with 4H483-AA, -2.13; with 4H464-AA (mean of both orientations) it was -1.77; with 4H446-AA it was -1.68.
DEIAQLEQEIAELKQEIAELEWKNAQLKQ [4H72-bA]: the interaction score was -0.0446 in the assay with 4H967-bA; -0.479 in the assay with 4H918-bA; -0.956 in the assay with 4H797-bA; 1.05 with 4H883-bA; -0.464 with 4H908-bA; -0.173 in the assay with 4H754-bA. Moreover, the interaction score is -0.161 with 4H953-bA and 0.83 with 4H72-bA.
As to DEIAALEAKNAALEAEIAALEAKNAALEG [4H391-AA], the interaction score in the assay with 4H3920-AA is -1.23; in the assay with 4H656-AA, -0.583; with 4H428-AA, -0.212; in the assay with 4H675-AA, -1.11; with 4H478-AA, -1.59; with 4H3939-AA, -1.7. Besides, the interaction score was -1.02 with 4H971-AA, -2 with 4H497-AA and -1.79 with 4H391-AA.
On to DEIAALEAKNAALKAEIAALKAKNAALKG [4H464-AA], for which the results for the interaction score with 4H63-AA, in the assay with 4H483-AA and with 4H464-AA were -1.22, -0.618 and -1.22, respectively.
